Test results taken from article PMC3746069 (FEBS letters, 2013).

B1: Outer arm dynein intermediate chain 2 with C-terminal 6xHis (IC2-6xHis) (natural protein, Chlamydomonas reinhardtii, UniProt P27766 1-567, looked up)
chain: MEIYHQYIKLRKQFGRFPKFGDEGSEMLADIRPNEDHGKEYIPRNPVTTVTQCVPEMSEHEANTNAVILVNKAMSHVEGGWPKDVDYTEAEHTIRYRKKVEKDEDYIRTVVQLGSSVEDLIKQNNAVDIYQEYFTNVTMDHTSEAPHVKTVTVFKDPNNIKRSASYVNWHPDGSVPKVVVAYSILQFQQQPAGMPLSSYIWDVNNPNTPEYEMVPTSQICCAKFNLKDNNLVGAGQYNGQLAYFDVRKGNGPVEATPIDISHRDPIYDFAWLQSKTGTECMTVSTDGNVLWWDLRKMNECVENMPLKEKNSETTVGGVCLEYDTNAGPTNFMVGTEQGQIFSCNRKAKNPVDRVKYVLSGHHGPIYGLRRNPFNSKYFLSIGDWTARVWVEDTAVKTPILTTKYHPTYLTGGTWSPSRPGVFFTIKMDGAMDVWDLYYKHNEPTLTVQVSDLALTAFAVQESGGTVAVGTSDGCTSVLQLSTGLSEASPAEKANINAMFERETTREKNLEKAIKEAKVKARKEQGRRDEVKDNVTEEQLKALEDEFFKTTDPAVGGGYGAGEGAAAE

Assays:
[1] = target: T1, Outer arm dynein intermediate chain 1 with N-terminal 6xHis (His-IC1) (Chlamydomonas reinhardtii, UniProt Q39578 1-683); assay: co-IP
T1 sequence (looked up): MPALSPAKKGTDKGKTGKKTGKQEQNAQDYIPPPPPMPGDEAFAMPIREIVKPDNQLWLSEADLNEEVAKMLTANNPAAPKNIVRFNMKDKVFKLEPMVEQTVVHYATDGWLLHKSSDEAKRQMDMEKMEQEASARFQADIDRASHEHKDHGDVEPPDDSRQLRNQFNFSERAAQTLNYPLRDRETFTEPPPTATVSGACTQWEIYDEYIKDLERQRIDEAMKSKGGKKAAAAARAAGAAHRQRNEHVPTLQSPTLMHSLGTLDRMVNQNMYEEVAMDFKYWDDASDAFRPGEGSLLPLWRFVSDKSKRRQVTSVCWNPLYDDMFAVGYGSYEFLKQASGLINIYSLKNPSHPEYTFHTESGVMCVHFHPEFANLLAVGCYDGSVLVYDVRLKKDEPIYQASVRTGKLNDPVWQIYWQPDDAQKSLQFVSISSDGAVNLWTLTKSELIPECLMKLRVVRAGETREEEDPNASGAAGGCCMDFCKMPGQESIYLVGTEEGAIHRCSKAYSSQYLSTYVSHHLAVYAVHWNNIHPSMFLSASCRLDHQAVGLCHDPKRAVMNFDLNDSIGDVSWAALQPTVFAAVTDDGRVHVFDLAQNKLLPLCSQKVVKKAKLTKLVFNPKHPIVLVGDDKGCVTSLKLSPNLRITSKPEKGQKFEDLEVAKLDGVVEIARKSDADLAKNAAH

[2] = target: T2, Outer dynein arm docking complex subunit DC2 with C-terminal 6xHis (DC2-6xHis) (Chlamydomonas reinhardtii, UniProt A8JF70 1-552); assay: pull-down
T2 sequence (looked up): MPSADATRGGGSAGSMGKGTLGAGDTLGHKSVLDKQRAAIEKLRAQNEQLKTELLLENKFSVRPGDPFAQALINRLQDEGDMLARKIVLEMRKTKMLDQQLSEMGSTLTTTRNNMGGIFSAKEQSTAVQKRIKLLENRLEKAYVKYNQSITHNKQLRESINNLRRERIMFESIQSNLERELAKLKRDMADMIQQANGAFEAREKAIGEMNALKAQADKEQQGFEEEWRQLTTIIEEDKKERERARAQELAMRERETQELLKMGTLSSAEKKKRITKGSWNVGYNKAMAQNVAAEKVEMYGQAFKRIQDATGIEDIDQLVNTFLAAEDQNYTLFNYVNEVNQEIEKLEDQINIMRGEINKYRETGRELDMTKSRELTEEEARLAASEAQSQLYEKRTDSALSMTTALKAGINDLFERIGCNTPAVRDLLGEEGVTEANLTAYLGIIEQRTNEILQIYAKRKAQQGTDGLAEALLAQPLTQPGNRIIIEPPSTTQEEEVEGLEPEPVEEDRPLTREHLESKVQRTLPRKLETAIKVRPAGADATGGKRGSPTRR

[3] = target: B1; assay: pull-down

B1
binding result [1]: binds

B2: Outer dynein arm docking complex subunit DC1, not tagged (natural protein)
chain: not shown
stoichiometry N [2]: 1 DC1:DC2

B3: Outer arm dynein intermediate chain 1 (IC1), not tagged (natural protein, Chlamydomonas reinhardtii, UniProt Q39578 1-683, looked up)
chain: MPALSPAKKGTDKGKTGKKTGKQEQNAQDYIPPPPPMPGDEAFAMPIREIVKPDNQLWLSEADLNEEVAKMLTANNPAAPKNIVRFNMKDKVFKLEPMVEQTVVHYATDGWLLHKSSDEAKRQMDMEKMEQEASARFQADIDRASHEHKDHGDVEPPDDSRQLRNQFNFSERAAQTLNYPLRDRETFTEPPPTATVSGACTQWEIYDEYIKDLERQRIDEAMKSKGGKKAAAAARAAGAAHRQRNEHVPTLQSPTLMHSLGTLDRMVNQNMYEEVAMDFKYWDDASDAFRPGEGSLLPLWRFVSDKSKRRQVTSVCWNPLYDDMFAVGYGSYEFLKQASGLINIYSLKNPSHPEYTFHTESGVMCVHFHPEFANLLAVGCYDGSVLVYDVRLKKDEPIYQASVRTGKLNDPVWQIYWQPDDAQKSLQFVSISSDGAVNLWTLTKSELIPECLMKLRVVRAGETREEEDPNASGAAGGCCMDFCKMPGQESIYLVGTEEGAIHRCSKAYSSQYLSTYVSHHLAVYAVHWNNIHPSMFLSASCRLDHQAVGLCHDPKRAVMNFDLNDSIGDVSWAALQPTVFAAVTDDGRVHVFDLAQNKLLPLCSQKVVKKAKLTKLVFNPKHPIVLVGDDKGCVTSLKLSPNLRITSKPEKGQKFEDLEVAKLDGVVEIARKSDADLAKNAAH
stoichiometry N [3]: 1 IC1:IC2
